According to patent publication US20200199204A1 (UNITED STATES OF AMERICA AS REPRESENTED BY THE SECRETARY …, published 2020):

What was measured:
Test in all cases: cell-based or functional assay
HIV-1 Env of 6405.v4.c34 = HIV-1 Env of 6405.v4.c34 (HIV-1)
HIV-1 Env of 191821.E6.1 = HIV-1 Env of 191821.E6.1 (HIV-1)
HIV-1 Env of DU422.01 = HIV-1 Env of DU422.01 (HIV-1)
HIV-1 Env of 96ZM651.02 = HIV-1 Env of 96ZM651.02 (HIV-1)
HIV-1 Env of PVO.04 = HIV-1 Env of PVO.04 (HIV-1)
HIV-1 Env of TRJO.58 = HIV-1 Env of TRJO.58 (HIV-1)
HIV-1 Env of CNE3 = HIV-1 Env of CNE3 (HIV-1)
HIV-1 Env of C1080.c3 = HIV-1 Env of C1080.c3 (HIV-1)
HIV-1 Env of KER2018.11 = HIV-1 Env of KER2018.11 (HIV-1)
HIV-1 Env of ZM233.6 = HIV-1 Env of ZM233.6 (HIV-1)
HIV-1 Env of SC422.8 = HIV-1 Env of SC422.8 (HIV-1)
HIV-1 Env of 3016.V5.c36 = HIV-1 Env of 3016.V5.c36 (HIV-1)
HIV-1 Env of Q23.17 = HIV-1 Env of Q23.17 (HIV-1)
HIV-1 Env of UG037.8 = HIV-1 Env of UG037.8 (HIV-1)
HIV-1 Env of CAP45.G3 = HIV-1 Env of CAP45.G3 (HIV-1)
HIV-1 Env of TH976.17 = HIV-1 Env of TH976.17 (HIV-1)
HIV-1 Env of ZM109.4 = HIV-1 Env of ZM109.4 (HIV-1)
HIV-1 Env of ZM197.7 = HIV-1 Env of ZM197.7 (HIV-1)
HIV-1 Env of ZM135.10a = HIV-1 Env of ZM135.10a (HIV-1)
HIV-1 Env of CAAN.A2 = HIV-1 Env of CAAN.A2 (HIV-1)
HIV-1 Env of DU172.17 = HIV-1 Env of DU172.17 (HIV-1)
HIV-1 Env of Q259.d2.17 = HIV-1 Env of Q259.d2.17 (HIV-1)
HIV-1 Env of RW020.2 = HIV-1 Env of RW020.2 (HIV-1)
HIV-1 Env of BG505.w6m = HIV-1 Env of BG505.w6m (HIV-1)
HIV-1 Env of CAP256.PI = HIV-1 Env of CAP256.PI (HIV-1)
HIV-1 Env of WITO.33 = HIV-1 Env of WITO.33 (HIV-1)
HIV-1 Env of CM244.ec1 = HIV-1 Env of CM244.ec1 (HIV-1)
HIV-1 Env of Q168.a2 = HIV-1 Env of Q168.a2 (HIV-1)
HIV-1 Env of AC10.29 = HIV-1 Env of AC10.29 (HIV-1)
HIV-1 Env of MB201 = HIV-1 Env of MB201 (HIV-1)
HIV-1 Env of CAP210.E8 = HIV-1 Env of CAP210.E8 (HIV-1)
HIV-1 Env of ZM53.12 = HIV-1 Env of ZM53.12 (HIV-1)
HIV-1 Env of CAP256.SU = HIV-1 Env of CAP256.SU (HIV-1)
HIV-1 Env of Q461.e2 = HIV-1 Env of Q461.e2 (HIV-1)
HIV-1 Env of ZM214.15 = HIV-1 Env of ZM214.15 (HIV-1)
HIV-1 Env of REJO.67 = HIV-1 Env of REJO.67 (HIV-1)
HIV-1 Env of CAP244.D3 = HIV-1 Env of CAP244.D3 (HIV-1)
HIV-1 Env of Q842.d12 = HIV-1 Env of Q842.d12 (HIV-1)
HIV-1 Env of DU156.12 = HIV-1 Env of DU156.12 (HIV-1)
HIV-1 Env of 0260.v5.c36 = HIV-1 Env of 0260.v5.c36 (HIV-1)
HIV-1 Env of RHPA.7 = HIV-1 Env of RHPA.7 (HIV-1)
HIV-1 Env of QH0692.42 = HIV-1 Env of QH0692.42 (HIV-1)
HIV-1 Env of MB539.2B7 = HIV-1 Env of MB539.2B7 (HIV-1)
HIV-1 Env of Q769.d22 = HIV-1 Env of Q769.d22 (HIV-1)
HIV-1 Env of THRO.18 = HIV-1 Env of THRO.18 (HIV-1)
HIV-1 Env of KER2008.12 = HIV-1 Env of KER2008.12 (HIV-1)
HIV-1 Env of 6535.3 = HIV-1 Env of 6535.3 (HIV-1)
HIV-1 Env of ZM249.1 = HIV-1 Env of ZM249.1 (HIV-1)
HIV-1 Env of TRO.11 = HIV-1 Env of TRO.11 (HIV-1)
[1] = target: HIV-1 Env of strain TH976.17 (clade AE), on Env-pseudovirus (HIV-1 strain TH976.17)
[2] = target: HIV-1 Env of strain CNE3 (clade AE), on Env-pseudovirus (HIV-1 strain CNE3)

B1: CAP256-VRC26.04 (antibody, V domains shown)
VH: EVQLVESGGGVVQPGKSLRLSCAASQFSFNRYGMHWVRQAPGKGLEWVAAISYDGTDKYHADKVWGRFTISRDNSKNTLYLQMNSLRAEDTALYYCAKDLREDECEEWWSDYYDFGKQLPCRKSRGVAGIFDKWGQGTMVIVSS
VL: QPVLTQPPSVSAAPGQKVTISCSGSSSNIGNNFVSWYQQRPGTAPSLLIYETNKRPSGIPDRFSGSKSATSATLAITGLQTGDEADYYCATWAASLTSARVFGTGTKVIVSG
- neutralization IC50 (HIV-1 Env of 6405.v4.c34): > 50 mg/L
- neutralization IC50 (HIV-1 Env of 191821.E6.1): > 50 mg/L
- neutralization IC50 (HIV-1 Env of DU422.01): 4.17 mg/L
- neutralization IC50 (HIV-1 Env of 96ZM651.02): > 50 mg/L
- neutralization IC50 (HIV-1 Env of PVO.04): > 50 mg/L
- neutralization IC50 (HIV-1 Env of TRJO.58): > 50 mg/L
- neutralization IC50 (HIV-1 Env of CNE3): > 50 mg/L
- neutralization IC50 (HIV-1 Env of C1080.c3): 0.212 mg/L
- neutralization IC50 (HIV-1 Env of KER2018.11): 0.008 mg/L
- neutralization IC50 (HIV-1 Env of ZM233.6): 0.06 mg/L
- neutralization IC50 (HIV-1 Env of SC422.8): > 50 mg/L
- neutralization IC50 (HIV-1 Env of 3016.V5.c36): 0.283 mg/L
- neutralization IC50 (HIV-1 Env of Q23.17): 23.6 mg/L
- neutralization IC50 (HIV-1 Env of UG037.8): > 50 mg/L
- neutralization IC50 (HIV-1 Env of CAP45.G3): > 50 mg/L
- neutralization IC50 (HIV-1 Env of TH976.17): > 50 mg/L
- neutralization IC50 (HIV-1 Env of ZM109.4): > 50 mg/L
- neutralization IC50 (HIV-1 Env of ZM197.7): 0.254 mg/L
- neutralization IC50 (HIV-1 Env of ZM135.10a): > 50 mg/L
- neutralization IC50 (HIV-1 Env of CAAN.A2): > 50 mg/L
- neutralization IC50 (HIV-1 Env of DU172.17): > 50 mg/L
- neutralization IC50 (HIV-1 Env of Q259.d2.17): 0.025 mg/L
- neutralization IC50 (HIV-1 Env of RW020.2): > 50 mg/L
- neutralization IC50 (HIV-1 Env of BG505.w6m): 8.43 mg/L
- neutralization IC50 (HIV-1 Env of CAP256.PI): > 50 mg/L
- neutralization IC50 (HIV-1 Env of WITO.33): > 50 mg/L
- neutralization IC50 (HIV-1 Env of CM244.ec1): 0.361 mg/L
- neutralization IC50 (HIV-1 Env of Q168.a2): > 50 mg/L
- neutralization IC50 (HIV-1 Env of AC10.29): > 50 mg/L
- neutralization IC50 (HIV-1 Env of MB201): > 50 mg/L
- neutralization IC50 (HIV-1 Env of CAP210.E8): 0.005 mg/L
- neutralization IC50 (HIV-1 Env of ZM53.12): 0.004 mg/L
- neutralization IC50 (HIV-1 Env of CAP256.SU): 0.003 mg/L
- neutralization IC50 (HIV-1 Env of Q461.e2): > 50 mg/L
- neutralization IC50 (HIV-1 Env of ZM214.15): > 50 mg/L
- neutralization IC50 (HIV-1 Env of REJO.67): > 50 mg/L
- neutralization IC50 (HIV-1 Env of CAP244.D3): > 50 mg/L
- neutralization IC50 (HIV-1 Env of Q842.d12): > 50 mg/L
- neutralization IC50 (HIV-1 Env of DU156.12): 10.4 mg/L
- neutralization IC50 (HIV-1 Env of 0260.v5.c36): > 50 mg/L
- neutralization IC50 (HIV-1 Env of RHPA.7): > 50 mg/L
- neutralization IC50 (HIV-1 Env of QH0692.42): > 50 mg/L
- neutralization IC50 (HIV-1 Env of MB539.2B7): > 50 mg/L
- neutralization IC50 (HIV-1 Env of Q769.d22): > 50 mg/L
- neutralization IC50 (HIV-1 Env of THRO.18): > 50 mg/L
- neutralization IC50 (HIV-1 Env of KER2008.12): > 50 mg/L
- neutralization IC50 (HIV-1 Env of 6535.3): > 50 mg/L
- neutralization IC50 (HIV-1 Env of ZM249.1): 11.4 mg/L
- neutralization IC50 (HIV-1 Env of TRO.11): > 50 mg/L

B2: CAP256-VRC26.07 (antibody, V domains shown)
VH: EVQLVESGGGVVQPGRSLRLSCVGSQFSFNRYGMHWVRQAPGKGLEWVAGISFDGTDRYHADNVWGRFTISRDNSKNTLYLQMSSLRAEDTALYYCAKDLREDECEEWWSDYYDFGKKLPCRKSRGVAGVFDKWGQGTMVTVSS
VL: QAVLTQPPSVSAAPGQNVTISCSGSGSNIGNNFVSWYQQRPGTAPKLLIYESNKRPSGIPDRFSGSKSGTSATLAITGLQTGDEAYYYCATWAARLNSARVFGTGTMVTVLG
- IC50, neutralization of Env-pseudovirus (TZM-bl assay) [1]: > 50 mg/L
- IC50, neutralization of Env-pseudovirus (TZM-bl assay) [2]: > 50 mg/L
